Laboratory results published in the supplement of paper PMC12667976.

B1: library; numbered along this chain (parent)
chain: MATDAALRRLLRLHRTEIAVAVDSAFPLLHALADHDVVPEDKFQETLHLKEKEGCPQAFHALLSWLLTQDSTAILDFWRVLFKDYNLERYGRLQPILDSFPKDVDLSQPRKGRKPPAVPKALVPPPRLPTKRKASEEARAAAPAALTPRGTASPGSQLKAKPPKKPESSAEQQRLPLGNGIQTMSASVQRAVAMSSGDVPGARGAVEGILIQQVFESGGSKKCIQVGGEFYTPSKFEDSGSGKNKARSSSGPKPLVRAKGAQGAAPGGGEARLGQQGSVPAPLALPSDPQLHQKNEDECAVCRDGGELICCDGCPRAFHLACLSPPLREIPSGTWRCSSCLQATVQEVQPRAEEPRPQEPPVETPLPPGLRSAGEEVRGPPGEPLAGMDTTLVYKHLPAPPSAAPLPGLDSSALHPLLCVGPEGQQNLAPGARCGVCGDGTDVLRCTHCAAAFHWRCHFPAGTSRPGTGLRCRSCSGDVTPAPVEGVLAPSPARLAPGPAKDDTASHEPALHRDDLESLLSEHTFDGILQWAIQSMARPAAPFPS

Variants of: B1
Test: AIRE transcriptional activation functional score (insulin promoter-GFP; nonsense median 0, synonymous median 1) (normalised score); higher = higher AIRE activity (more reporter activation)
Conditions: with insulin promoter-GFP reporter in HEK293
Protocol: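 Deep mutational scan of full-length human AIRE (codon-optimized cDNA, DT-POPCode NNN libraries over three regions) integrated at a Bxb1 landing pad in HEK293 cells carrying an insulin core promoter-GFP reporter at a Flp-In site. Cells were sorted for the top 10% GFP about 14 days after transfection. Variant frequency log-ratios (select vs non-select, TileSeq) were rescaled so that the nonsense median is 0 and the synonymous median is 1, then averaged over biological replicates.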

AIRE transcriptional activation functional score: each site, then its substitutions
C302: V 0.651 | D 0.537 | Q 0.705 | I 0.572 | N 0.531 | T 0.263 | E 0.654 | H 0.701 | K 0.3 | A 0.669 | L 0.555 | F 0.63 | R 0.411 | G 0.54 | P 0.251 | W 0.72 | S 0.665
E307: N 1.41 | K 1.16 | Y 0.242 | M 0.227 | G 1.18 | D 0.973 | Q 1 | I 0.714 | W 0.599 | L 0.372 | H 1.11 | V 1.2 | T 1.03 | A 0.982 | P 0.172 | F 0.273 | C 0.732 | R 1.28 | S 1.2
L308: I 0.905 | N 0.45 | E 1.02 | R 0.932 | C 1.43 | S 1.12 | V 1.16 | K 0.0443 | W -0.607 | H 1.33 | T 0.853 | M 1.11 | F 0.909 | P 0.912 | Q 1.3 | G 0.784 | D 0.755 | Y 0.412 | A 1.06
D297: C 0.929 | H 0.894 | A 0.963 | P 1.29 | K 1.49 | L 0.697 | R 0.34 | V 0.909 | T 0.153 | G 0.852 | Y 0.771 | I 0.487 | N 0.25 | W 0.671 | M 0.682 | Q 1.32 | S 0.838 | F 0.8 | E 0.884
C311: Y 0.792 | D 0.772 | M 1.62 | S 1.04 | E 0.822 | P 1.34 | W 0.678 | G 0.921 | H 1.01 | R 0.856 | T 0.998 | N 1.47 | I 0.604 | A 1.11 | L 0.839 | K 1.13 | F 0.878 | Q 0.783 | V 0.86
A300: T 0.981 | P 1.05 | H 0.907 | Q 0.413 | D 1.26 | S 0.968 | K 1.08 | Y 0.856 | R 1.14 | E 0.84 | G 0.768 | W 1.22 | V 1.09 | N 0.883 | I 1.11 | L 0.917 | C 1.39 | F 1.57
G305: T 1.35 | M 0.666 | R 0.945 | Q 0.0432 | D 1.1 | A 0.453 | P 0.937 | L 1.31 | S 0.9 | W 0.779 | I -0.493 | N 1.16 | H 0.264 | K 1.08 | C 1.06 | E 0.782 | V 1.07 | F 0.497 | Y 1.05
I309: R 0.877 | L 0.505 | V 1.14 | P 1.07 | N 1.23 | E 1.43 | T 0.922 | W 1.55 | H 0.916 | M 0.866 | A 0.827 | D 0.964 | S 1.35 | F 1.18 | C 0.782 | G 1.11 | Y 1.19 | K 0.472 | Q 0.905
D304: R 0.879 | N 0.503 | T 1.15 | S 1.42 | Y 0.808 | L 0.299 | P 0.387 | K 1.11 | W 1.21 | M 1.31 | G 0.56 | E 0.883 | I 0.384 | C 1.29 | H 1.13 | V 0.99 | F 0.0957 | A 0.858
